Target: p-ERK1/2 (Thr202/Tyr204)
Test: co-IP (IP: Flag, IB: p-ERK1/2), band intensity quantified in bar chart
Details: whole-cell extracts from MCF-7C5RN cells; without CGP57380; parent: est. 0.24; read off a plot

response: 0.11
Substance: Flag-WTAP (wild type) (from UniProt Q15007) S341A
